Experimental data from US11472877 (Alector, dated 2022).

Experiments:
mouse TREM1 on CHO cells = target: T1, mouse TREM1 on CHO cells (mouse, UniProt Q9JKE2 21-230); experiment: FACS, CHO mouse TREM1
T1 construct: also called CHO-mT1
T1 sequence: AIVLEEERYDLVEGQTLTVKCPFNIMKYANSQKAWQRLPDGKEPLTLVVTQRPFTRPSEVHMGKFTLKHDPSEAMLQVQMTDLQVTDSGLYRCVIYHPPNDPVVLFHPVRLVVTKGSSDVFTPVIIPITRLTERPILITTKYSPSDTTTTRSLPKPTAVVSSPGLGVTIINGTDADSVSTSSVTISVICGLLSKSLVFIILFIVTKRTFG

mouse TREM2 on BWZ cells [1] = target: T2, mouse TREM2 on BWZ cells (mouse, UniProt Q99NH8 19-227); experiment: FACS, BWZ mouse TREM2
T2 construct: whole, on cells; also called BWZ Mouse TREM2
T2 sequence (looked up): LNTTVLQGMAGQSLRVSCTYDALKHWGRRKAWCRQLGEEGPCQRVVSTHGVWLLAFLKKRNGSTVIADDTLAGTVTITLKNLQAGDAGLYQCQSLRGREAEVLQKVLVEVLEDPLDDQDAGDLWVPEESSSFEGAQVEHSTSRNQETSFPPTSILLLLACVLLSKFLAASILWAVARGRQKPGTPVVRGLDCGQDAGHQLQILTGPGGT

human TREM2 on BWZ cells [2] = target: T3, human TREM2 on BWZ cells (human, UniProt Q9NZC2 19-230); experiment: FACS, BWZ cells
T3 construct: whole, on cells; not tied to the cell line; also called BWZ Human TREM2
T3 sequence (looked up): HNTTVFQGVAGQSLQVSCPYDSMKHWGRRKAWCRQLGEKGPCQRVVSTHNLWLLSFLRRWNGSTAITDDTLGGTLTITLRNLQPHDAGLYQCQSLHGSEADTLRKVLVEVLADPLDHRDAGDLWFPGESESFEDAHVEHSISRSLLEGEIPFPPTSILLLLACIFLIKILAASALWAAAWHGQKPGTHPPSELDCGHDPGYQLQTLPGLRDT

mouse TREM2 on BWZ cells [3] = target: T2, mouse TREM2 on BWZ cells; experiment: FACS, BWZ cells
human TREM2 on BWZ cells [4] = target: T3, human TREM2 on BWZ cells; experiment: FACS, BWZ human TREM2

Row | Binder | FOB Fold Over Background (mouse TREM1 on CHO cells) [fold] | FOB Fold Over Background (mouse TREM2 on BWZ cells [1]) [fold] | binding result (human TREM2 on BWZ cells [2]) | binding result (mouse TREM2 on BWZ cells [3]) | FOB Fold Over Background (human TREM2 on BWZ cells [4]) [fold]
1 | T1-20 (antibody, IgG1, V domains shown, huIgG1; also called TI-20; ADI-19087) VH: EVQLVESGGGLVQPGGSLRLSCAASGFTFSSYWMSWVRQAPGKGLEWVANIKQDGSEKYYVDSVKGRFTISRDNAKNSLYLQMNSLRAEDTAVYYCARDAPQLGLDVWGQGTMVTVSS VL: not shown | 0.7 | 1 | no binding | no binding | 0.6
2 | T1-7 (antibody, IgG1, V domains shown, huIgG1; also called TI-7; ADI-19073) VH: QVQLVQSGAEVKKPGASVKVSCKASGYTFTSYYMHWVRQAPGQGLEWMGIINPSGGSTSYAQKFQGRVTMTRDTSTSTVYMELSSLRSEDTAVYYCARGLIYGDAFDYWGQGTLVTVSS VL: not shown |  |  | no binding | no binding | 
3 | T1-13 (antibody, IgG1, V domains shown, huIgG1; also called TI-13; ADI-19080) VH: EVQLVESGGGLVKPGGSLRLSCAASGFTFSSYSMNWVRQAPGKGLEWVSSISSSSNYIYYADSVKGRFTISRDNAKNSLYLQMNSLRAEDTAVYYCARGRYRRTGSLDVWGQGTMVTVSS VL: EIVLTQSPGTLSLSPGERATLSCRASQSVSSSFLAWYQQKPGQAPRLLIYGASSRATGIPDRFSGSGSGTDFTLTISRLEPEDFAVYYCQQLDSHPPTFGGGTKVEIK | 0.5 | 1.2 | no binding | no binding | 0.7
4 | T1-15 (antibody, IgG1, V domains shown, huIgG1; also called TI-15; ADI-19082) VH: EVQLVESGGGLVKPGGSLRLSCAASGFTFSSYSMNWVRQAPGKGLEWVSSISSSSSYIYYADSVKGRFTISRDNAKNSLYLQMNSLRAEDTAVYYCARRGGSYDAFQHWGQGTLVTVSS VL: EIVLTQSPGTLSLSPGERATLSCRASQSVSSSYLAWYQQKPGQAPRLLIYGASSRATGIPDRFSGSGSGTDFTLTISRLEPEDFAVYYCQQAFISPPTFGGGTKVEIK |  |  | no binding | no binding | 
5 | T1-16 (antibody, IgG1, V domains shown, huIgG1; also called TI-16; ADI-19083) VH: EVQLVESGGGLVQPGRSLRLSCAASGFTFDDYAMHWVRQAPGKGLEWVSGISWNSGSIGYADSVKGRFTISRDNAKNSLYLQMNSLRAEDTALYYCAKGPRMSGWWADWGQGTLVTVSS VL: DIQMTQSPSSVSASVGDRVTITCRASQGISSWLAWYQQKPGKAPKLLIYAASSLQSGVPSRFSGSGSGTDFTLTISSLQPEDFATYYCQQADTLPITFGGGTKVEIK | 1 | 1.2 | no binding | no binding | 0.7
6 | T1-19 (antibody, IgG1, V domains shown, huIgG1; also called TI-19; ADI-19086) VH: EVQLVESGGGLVQPGGSLRLSCAASGFTFSDHHMDWVRQAPGKGLEWVGRTRNKANSYTTEYAASVKGRFTISRDDSKNSLYLQMNSLKTEDTAVYYCARGPLGYKLWGQGTLVTVSS VL: DIQMTQSPSSVSASVGDRVTITCRASQGISSWLAWYQQKPGKAPKLLIYAASNLQSGVPSRFSGSGSGTDFTLTISSLQPEDFATYYCQQANSFPLTFGGGTKVEIK | 0.9 | 0.8 | no binding | no binding | 0.5
7 | T1-24 (antibody, IgG1, V domains shown, huIgG1; also called TI-24; ADI-19150) VH: EVQLVESGGGLVQPGRSLRLSCAASGFTFDDYAMHWVRQAPGKGLEWVSGITWNSGSIGYADSVKGRFTISRDNAKNSLYLQMNSLRAEDTALYYCAKGPRLLSALDVWGQGTMVTVSS VL: DIQMTQSPSTLSASVGDRVTITCRASQSISSWLAWYQQKPGKAPKLLIYKASSLESGVPSRFSGSGSGTEFTLTISSLQPDDFATYYCQQDSIYPITFGGGTKVEIK | 1.3 | 1.2 | no binding | no binding | 1.4
8 | T1-23 (antibody, IgG1, V domains shown, huIgG1; also called TI-23; ADI-19090) VH: EVQLVESGGGLVQPGRSLRLSCAASGFTFDDYAMHWVRQAPGKGLEWVSGITWNSGSIGYADSVKGRFTISRDNAKNSLYLQMNSLRAEDTALYYCAKGPRLLSALDVWGQGTMVTVSS VL: DIQMTQSPSTLSASVGDRVTITCRASQSIGSWLAWYQQKPGKAPKLLIYKASSLESGVPSRFSGSGSGTEFTLTISSLQPDDFATYYCQQHQSFSPTFGGGTKVEIK | 1 | 1.2 | no binding | no binding | 1
9 | T1-21 (antibody, IgG1, V domains shown, huIgG1; also called TI-21; ADI-19088) VH: EVQLVESGGGLVQPGGSLRLSCAASGFTFSSYSMNWVRQAPGKGLEWVSYISSSSSTIYYADSVKGRFTISRDNAKNSLYLQMNSLRAEDTAVYYCARGGPLGYGDYKGMDVWGQGTTVTVSS VL: DIQLTQSPSSLSASVGDRVTITCRASQSISSFLNWYQQKPGKAPKLLIYAASSLQSGVPSRFSGSGSGTDFTLTISSLQPEDFATYYCQQSYSDLTFGGGTKVEIK | 0.5 | 0.9 | no binding | no binding | 0.5

Second part, the binder after the results:

Row | FOB Fold Over Background (mouse TREM1 on CHO cells) [fold] | FOB Fold Over Background (mouse TREM2 on BWZ cells [1]) [fold] | binding result (human TREM2 on BWZ cells [2]) | binding result (mouse TREM2 on BWZ cells [3]) | FOB Fold Over Background (human TREM2 on BWZ cells [4]) [fold] | Binder
10 |  |  | no binding | no binding |  | T1-22 (antibody, IgG1, V domains shown, huIgG1; also called TI-22; ADI-19089) VH: QVQLQESGPGLVKPSETLSLTCTVSGGSISSYYWSWIRQPPGKGLEWIGHIYYSGSTNYNPSLKSRVTISVDTSKNQFSLKLSSVTAADTAVYYCARDAGRYYGSSSSWYFDLWGRGTLVTVSS VL: EIVLTQSPGTLSLSPGERATLSCRASQSVSSSYLAWYQQKPGQAPRLLIYGASSRATGIPDRFSGSGSGTDFTLTISRLEPEDFAVYYCQQYLIPPITFGGGTKVEIK
11 |  |  | no binding | no binding |  | T1-12 (antibody, IgG1, V domains shown, huIgG1; also called TI-12; ADI-19079) VH: QLQLQESGPGLVKPSETLSLTCTVSGGSISSSSYYWGWIRQPPGKGLEWIGSIYYSGSTYYNPSLKSRVTISVDTSKNQFSLKLSSVTAADTAVYYCARGGGYPWEAFDYWGKGTTVTVSS VL: EIVLTQSPATLSLSPGERATLSCRASQSVSSYLAWYQQKPGQAPRLLIYDASNRATGIPARFSGSGSGTDFTLTISSLEPEDFAVYYCQQYTSWPLTFGGGTKVEIK
12 |  |  | no binding | no binding |  | T1-34 (antibody, IgG1, V domains shown, huIgG1; also called TI-34; ADI-19108) VH: EVQLVESGGGLVKPGGSLRLSCAASGFTFSSYSMNWVRQAPGKGLEWVSSISSSSNYIYYADSVKGRFTISRDNAKNSLYLQMNSLKAEDTAVYYCARRPDDRRGLFQHWGQGTLVTVSS VL: DIQMTQSPSTLSASVGDRVTITCRASQSINSWLAWYQQKPGKAPKLLISDASSLESGVPSRFSGSGSGTEFTLTISSLQPDDFATYYCQQYGPYPYTFGGGTKVEIK
13 |  |  | no binding | no binding |  | T1-14 (antibody, IgG1, V domains shown, huIgG1; also called TI-14; ADI-19081) VH: QVQLVESGGGVVQPGRSLRLSCAASGFTFSSYGMHWVRQAPGKGLEWVAVISYDGSNKYYADSVKGRFTISRDNSKNTLYLQMNSLRAEDTAVYYCARRSSGDYLDVWGQGTMVTVSS VL: not shown
14 |  |  | no binding | no binding |  | T1-33 (antibody, IgG1, V domains shown, huIgG1; also called TI-33; ADI-19107) VH: QVQLVESGGGVVQPGRSLRLSCAASGFTFSNYGMHWVRQAPGKGLEWVAVIWYDGSNKYYADSVKGRFTISRDNSKNTLYLQMNSLRAEDTAVYYCAKGSTHRGSAYGMDVWGQGTTVTVSS VL: DIQMTQSPSSVSASVGDRVTITCRASQGISSWLAWYQQKPGKAPKLLIYAASSLQSGVPSRFSGSGSGTDFTLTISSLQPEDFATYYCQQINDHPFTFGGGTKVEIK
15 |  |  | no binding | no binding |  | T1-11 (antibody, IgG1, V domains shown, huIgG1; also called TI-11; ADI-19078) VH: QLQLQESGPGLVKPSETLSLTCTVSGGSISSSSYYWGWIRQPPGKGLEWIGSIYYSGSTYYNPSLKSRVTISVDTSKNQFSLKLSSVTAADTAVYYCARSGEYGFDLWGRGTLVTVSS VL: not shown
16 |  |  | no binding | no binding |  | T1-5 (antibody, IgG1, V domains shown, huIgG1; also called TI-5; ADI-19071) VH: QVQLVQSGAEVKKPGASVKVSCKASGYTFTSYYMHWVRQAPGQGLEWMGVINPSGGSTSYAQKFQGRVTMTRDTSTSTVYMELSSLRSEDTAVYYCARESDGIDSYFDYWGQGTLVTVSS VL: not shown
17 |  |  | no binding | no binding |  | T1-17 (antibody, IgG1, V domains shown, huIgG1; also called TI-17; ADI-19084) VH: QVQLQESGPGLVKPSETLSLTCTVSGGSISSYYWSWIRQPPGKGLEWIGSIYYSGSTNYNPSLKSRVTISVDTSKNQFSLKLSSVTAADTAVYYCARGAPGGRHNWFDPWGQGTLVTVSS VL: DIQMTQSPSSLSASVGDRVTITCQASQDISNYLNWYQQKPGKAPKLLIYDASNLATGVPSRFSGSGSGTDFTFTISSLQPEDIATYYCQQSDIHPRTFGGGTKVEIK
